In US12365732 (23ANDME, dated 2025):

T1: cy-CD96 (soluble, extracellular domain) (cynomolgus monkey, UniProt P40200 22-516 (human entry), biotinylated in Octet and blocking ELISA)
T1 construct: the assays name only cy-CD96; also called biotinylated cy-CD96
T1 chain: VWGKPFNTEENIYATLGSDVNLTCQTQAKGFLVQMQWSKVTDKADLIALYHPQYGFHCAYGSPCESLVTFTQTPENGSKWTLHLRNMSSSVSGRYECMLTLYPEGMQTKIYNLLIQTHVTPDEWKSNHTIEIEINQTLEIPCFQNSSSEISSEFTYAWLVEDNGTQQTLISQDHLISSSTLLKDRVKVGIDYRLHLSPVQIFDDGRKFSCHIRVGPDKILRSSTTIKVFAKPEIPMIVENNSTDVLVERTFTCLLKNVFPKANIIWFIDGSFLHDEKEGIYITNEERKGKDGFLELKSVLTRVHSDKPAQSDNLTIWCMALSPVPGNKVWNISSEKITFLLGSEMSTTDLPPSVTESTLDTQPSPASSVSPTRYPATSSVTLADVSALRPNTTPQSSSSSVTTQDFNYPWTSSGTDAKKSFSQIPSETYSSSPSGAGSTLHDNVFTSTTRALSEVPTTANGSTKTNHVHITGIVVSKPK


Columns and labels:
huCD96D1-Fc = huCD96D1-Fc (human); assay: Octet, antibody on anti-Fc sensors
Chain of huCD96D1-Fc (human) (chain, as listed by the source limits assumed): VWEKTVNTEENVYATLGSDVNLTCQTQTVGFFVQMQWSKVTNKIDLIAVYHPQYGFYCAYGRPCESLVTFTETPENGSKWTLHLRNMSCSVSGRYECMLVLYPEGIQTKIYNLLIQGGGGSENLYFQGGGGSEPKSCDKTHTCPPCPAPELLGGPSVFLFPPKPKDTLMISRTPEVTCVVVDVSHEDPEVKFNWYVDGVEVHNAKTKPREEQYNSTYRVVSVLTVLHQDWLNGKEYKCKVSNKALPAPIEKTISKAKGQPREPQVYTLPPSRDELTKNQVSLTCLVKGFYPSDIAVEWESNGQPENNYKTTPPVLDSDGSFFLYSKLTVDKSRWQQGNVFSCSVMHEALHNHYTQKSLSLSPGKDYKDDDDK
Procedure: Domain Binding Site Mapping mAb1.v7 and h10G1 were determined to bind the D1 domain of CD96. Epitope mapping experiments were performed on an OctetRed96 by capturing the antibodies on anti-Fc Octet sensors (ForteBio) and testing their binding to recombinant huCD96D1-Fc and huCD96D1D3.

[1] = target: T1, cy-CD96 (soluble, extracellular domain); assay: BLI (Octet), biotin-CD96 on SA, Fab analyte
Procedure: The binding affinity of the generated Fab variants of mAb1.v7 for hu-CD96 and cy-CD96 was determined by OCTET (Pall ForteBio) Bio-Layer Interferometry (BLI) binding analysis. The biotinylated hu-CD96 or biotinylated cy-CD96 was diluted to a final concentration 10 µg/mL in experimental buffer (PBS buffer with 0.01% Tween-20) and immobilized on the Streptavidin Capture (SA) biosensors (Pall ForteBio). Three-fold serial dilutions of the mAb1.v7 Fab variants starting at 1 µM as analytes were diluted in the experimental buffer (PBS buffer with 0.01% Tween-20). The biosensors were equilibrated in experimental buffer at 30° C. for ten minutes prior to starting the experiment. The kinetics experiment was performed with the following steps, where the step name, solution and time are listed: Baseline (buffer—60 seconds), Loading (biotinylated antigen—200 seconds), Baseline 2 (buffer—minimum 120 seconds), Association (analyte—200-300 seconds) and Dissociation (buffer—1000 seconds). The resulting BLI signal from analyte association and dissociation from the […] was analyzed using the Octet Data Analysis software (Pall ForteBio). First a reference subtraction was performed on all recorded traces using the reference well (biosensor that underwent same steps as experimental wells but no analyte for the Association step) and then all the traces were aligned to the beginning of the Association step. The entirety of the Association and Dissociation steps were used in a Global fit (minimum of four analyte concentration traces) in a 1:1 binding model to calculate the K_D values for the 16 selected individual mAb1.v7 Fab variants as summarized in Table 9 (below).

[2] = target: T1, cy-CD96 (soluble, extracellular domain); assay: ELISA, blocks biotin-CD96 binding to coated hu-CD155-mFc
Procedure: The selected 5 affinity matured Fab variants of mAb1.v7 Fab were assayed for blocking of human CD155 (hu-CD155) receptor by ELISA as follows. Briefly, 96-well MAXISORP® flat bottom plates (Thermofisher, Cat #439454) were coated overnight at 4° C. with 2 µg/mL goat anti-mouse Fc (Thermofisher, Cat #31168) in PBS. After removing the coating solution, unspecific binding was blocked with PBS containing 1% bovine serum albumin (BSA) and incubation at room temperature for one hour. Plates were then washed five times in PBS with 0.05% TWEEN®-20 (wash buffer) and added […] hu-CD155-mFc in PBS for 1 hour in room temperature. During blocking period, 50 µL/well of 4 nM biotinylated hu-CD96 or 40 nM biotinylated cy-CD96 with serial dilution of the Fab variants 50 µL/well (starting at 2 µM, 1:3 dilution) for two hours at room temperature with PBS containing 0.5% BSA and 0.05% Tween 20 (ELISA buffer) in NUNC F plate (Thermofisher, Cat #269620). Then transferred the antigen-antibody mix solution 80 µL/well into hu-CD155-mFc coated wells at room temperature for 15 min. Plates were then washed with wash buffer to which was added 50 µL/well Streptavidin poly-HRP (Thermofisher, Cat #21140) diluted 1:5000 in ELISA buffer at room temperature for one hour with agitation. […] Enzymatic color development was stopped with 50 µL/well of TMB stop solution (VWR, Cat #95059-200). Plates were analyzed with a SpectraMax i3X plate reader (Molecular Devices) at 450 nm. […] The blocking $IC50$ values for the mAbv1.7 and the 5 selected affinity matured Fab variants (mAb1.v7.2, mAb1.v7.9, mAb1.v7.16, mAb1.v7.48, mAb1.v7.70) are summarized in Table 10 (above).

Binder | binding result (huCD96D1-Fc) | Kd [1] | IC50 [2]
h10G1 IgG (humanized 10G1) (antibody, V domains shown, human IgG1 N297G) VH: EIQLVQSGSELKKPGASVKVSCKASGYPFTTYGMSWVRQAPGQGLEWMGWINTDSGVPTYADDFKGRFVFSLDTSVSTAYLQISSLKAEDTAVYFCARNIYYGWGNFDYWGQGTLVTVSS VL: EIVMTQSPDFQSVTPKEKVTITCRASQDIYRNLHWYQQKPDQTPKLLIKHASDSISGIPSRFSGSGSGTDFTLTINSLEAEDAAAYYCLQGYSMPYTFGGGTKVEIKG | binds | – | –
mAb1.v7.2 Fab (Fab, V domains shown, also called M34R/P52aF/T97V) VH: EVQLVQSGAEVKKPGASVKVSCKASGFTFTNNWRHWVRQAPGQGLEWIGMIHFNSGITNINEKFKNRVTMTTDTSTSTAYMELRSLRSEDTAVYYCRSDGVYEGYFDYWGQGTLVTVSS VL: DIQLTQSPSSLSASVGDRVTITCKASQNVGTAIVWYQQKPGKAPKVLIYSASTRYTGVPSRFSGSGSGTDFTLTISSLQPEDFATYYCQQYSSSPLTFGQGTKVEIK | – | 39.1 nM | 2.17 nM
mAb1.v7.70 Fab (Fab, V domains shown, also called N32R/P52aA/T97V) VH: EVQLVQSGAEVKKPGASVKVSCKASGFTFTNRWMHWVRQAPGQGLEWIGMIHANSGITNINEKFKNRVTMTTDTSTSTAYMELRSLRSEDTAVYYCRSDGVYEGYFDYWGQGTLVTVSS VL: DIQLTQSPSSLSASVGDRVTITCKASQNVGTAIVWYQQKPGKAPKVLIYSASTRYTGVPSRFSGSGSGTDFTLTISSLQPEDFATYYCQQYSSSPLTFGQGTKVEIK | – | 52.6 nM | 2 nM
mAb1.v7 IgG (humanized 12F8) (antibody, V domains shown, human IgG1 N297G) VH: EVQLVQSGAEVKKPGASVKVSCKASGFTFTNNWMHWVRQAPGQGLEWIGMIHPNSGITNINEKFKNRVTMTTDTSTSTAYMELRSLRSEDTAVYYCRSDGTYEGYFDYWGQGTLVTVSS VL: DIQLTQSPSSLSASVGDRVTITCKASQNVGTAIVWYQQKPGKAPKVLIYSASTRYTGVPSRFSGSGSGTDFTLTISSLQPEDFATYYCQQYSSSPLTFGQGTKVEIKG | binds | – | –
mAb1.v7.16 Fab (Fab, V domains shown, also called M34R/T97V) VH: EVQLVQSGAEVKKPGASVKVSCKASGFTFTNNWRHWVRQAPGQGLEWIGMIHPNSGITNINEKFKNRVTMTTDTSTSTAYMELRSLRSEDTAVYYCRSDGVYEGYFDYWGQGTLVTVSS VL: DIQLTQSPSSLSASVGDRVTITCKASQNVGTAIVWYQQKPGKAPKVLIYSASTRYTGVPSRFSGSGSGTDFTLTISSLQPEDFATYYCQQYSSSPLTFGQGTKVEIK | – | 97.9 nM | 1.42 nM
mAb1.v7.48 Fab (Fab, V domains shown, also called N32R/P52aH/T97V) VH: EVQLVQSGAEVKKPGASVKVSCKASGFTFTNRWMHWVRQAPGQGLEWIGMIHHNSGITNINEKFKNRVTMTTDTSTSTAYMELRSLRSEDTAVYYCRSDGVYEGYFDYWGQGTLVTVSS VL: DIQLTQSPSSLSASVGDRVTITCKASQNVGTAIVWYQQKPGKAPKVLIYSASTRYTGVPSRFSGSGSGTDFTLTISSLQPEDFATYYCQQYSSSPLTFGQGTKVEIK | – | 68 nM | 4.8 nM
mAb1.v7.9 Fab (Fab, V domains shown, also called M34R/P52aM/T97V) VH: EVQLVQSGAEVKKPGASVKVSCKASGFTFTNNWRHWVRQAPGQGLEWIGMIHMNSGITNINEKFKNRVTMTTDTSTSTAYMELRSLRSEDTAVYYCRSDGVYEGYFDYWGQGTLVTVSS VL: DIQLTQSPSSLSASVGDRVTITCKASQNVGTAIVWYQQKPGKAPKVLIYSASTRYTGVPSRFSGSGSGTDFTLTISSLQPEDFATYYCQQYSSSPLTFGQGTKVEIK | – | 129 nM | 3.18 nM
